Values joined by “and” are separate entries in the source; they are usually repeats but may differ in a detail not shown here. Identical values can stand only once.
Tests used:
[1] = target: biotinylated ^AviSKP1-FBXO22(12-403) (UniProt P63208); test: BLI
[2] = target: biotinylated ^AviSKP1-FBXO22(12-403) (UniProt P63208); test: SPR
[3] = target: BACH1 BTB domain (residues 7-128), wild type, tag-free (UniProt O14867); test: SEC-MALS
[4] = target: BACH1^BTB A53V mutant (cancer-associated, TCGA) (UniProt O14867); test: SEC-MALS
BACH1^BTB E12R = BACH1^BTB E12R (UniProt O14867); test: SEC-MALS
BACH1^BTB F9A = BACH1^BTB F9A (UniProt O14867); test: SEC-MALS
BACH1^BTB S13A = BACH1^BTB S13A (UniProt O14867); test: SEC-MALS
BACH1^BTB S13D = BACH1^BTB S13D (UniProt O14867); test: SEC-MALS
BACH1^BTB Y11A = BACH1^BTB Y11A (UniProt O14867); test: SEC-MALS
BACH1^BTB Y11F = BACH1^BTB Y11F (UniProt O14867); test: SEC-MALS
[5] = target: BACH1^BTB Y11H mutant (cancer-associated, TCGA) (UniProt O14867); test: SEC-MALS
BTFA-modified BACH1^BTB = BTFA-modified BACH1^BTB (UniProt O14867)
His10-TEV-BACH1^BTB = His10-TEV-BACH1^BTB (UniProt O14867); test: AlphaScreen or HTRF
[6] = target: BACH1 BTB domain (residues 7-128), wild type, tag-free (UniProt O14867); test: NMR titration
[7] = target: SKP1-FBXO22 heterodimer, wild type, tag-free (UniProt P63208); test: mass photometry
SKP1-FBXO22 heterodimer, wild type, tag-free (UniProt P63208), sequence (P63208 2-163, chain 1 of 2): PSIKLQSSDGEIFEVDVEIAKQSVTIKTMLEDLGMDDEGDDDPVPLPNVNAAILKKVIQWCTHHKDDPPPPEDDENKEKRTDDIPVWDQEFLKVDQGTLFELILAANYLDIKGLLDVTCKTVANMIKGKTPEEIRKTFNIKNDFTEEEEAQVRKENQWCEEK
SKP1-FBXO22 heterodimer, wild type, tag-free (UniProt P63208), sequence (Q8NEZ5 12-403, chain 2 of 2, further chain): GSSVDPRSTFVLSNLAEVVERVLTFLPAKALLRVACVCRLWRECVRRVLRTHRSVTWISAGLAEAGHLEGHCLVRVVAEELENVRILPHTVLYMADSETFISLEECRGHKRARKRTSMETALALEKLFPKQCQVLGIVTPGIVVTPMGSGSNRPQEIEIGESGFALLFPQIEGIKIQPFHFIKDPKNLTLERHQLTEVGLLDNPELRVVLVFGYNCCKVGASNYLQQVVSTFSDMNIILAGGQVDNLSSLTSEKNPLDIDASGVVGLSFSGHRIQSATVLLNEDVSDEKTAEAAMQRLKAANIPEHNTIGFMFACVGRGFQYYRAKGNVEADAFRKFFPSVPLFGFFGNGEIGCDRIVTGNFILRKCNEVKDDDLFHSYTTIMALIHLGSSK

mass photometry = target: the molecule itself; test: mass photometry

biotinylated ^AviSKP1-FBXO22(12-403), sequence (P63208 2-163, chain 1 of 2): as the sequence (P63208 2-163, chain 1 of 2) above
biotinylated ^AviSKP1-FBXO22(12-403), sequence (Q8NEZ5 12-403, chain 2 of 2, further chain): as the sequence (Q8NEZ5 12-403, chain 2 of 2, further chain) above

With “BACH1 BTB domain (residues 7-128), wild type, tag-free (from UniProt O14867 7-128) (domain or fragment)” the Kd [1] was 124 nM and 83.9 nM, the Kd [2] was 57.7 nM and the stoichiometry N [3] was 2.

Work on “BACH1^BTB A53V mutant (cancer-associated, TCGA) (from UniProt O14867 7-128) (domain or fragment)” yielded a stoichiometry N [4] of 2.

“BACH1^BTB E12R (from UniProt O14867 7-128) (domain or fragment)” was tested, and the stoichiometry N (BACH1^BTB E12R) was 2.

“BACH1^BTB F9A (from UniProt O14867 7-128) (domain or fragment)” was tested, and the stoichiometry N (BACH1^BTB F9A) was 2.

In the case of “BACH1^BTB S13A (from UniProt O14867 7-128) (domain or fragment)”, the stoichiometry N (BACH1^BTB S13A) is reported as 2.

With “BACH1^BTB S13D (from UniProt O14867 7-128) (domain or fragment)” the stoichiometry N (BACH1^BTB S13D) was 2.

“BACH1^BTB Y11A (from UniProt O14867 7-128) (domain or fragment)” was tested, and the stoichiometry N (BACH1^BTB Y11A) was 2.

For “BACH1^BTB Y11F (from UniProt O14867 7-128) (domain or fragment)”, the stoichiometry N (BACH1^BTB Y11F) was 2.

“BACH1^BTB Y11H mutant (cancer-associated, TCGA) (from UniProt O14867 7-128) (domain or fragment)” showed a stoichiometry N [5] of 2.

“BTFA-modified BACH1^BTB (from UniProt O14867 7-128) (domain or fragment)” showed a stoichiometry N (BTFA-modified BACH1^BTB) of 2.

In the case of “SKP1-FBXO22 heterodimer, wild type, tag-free (from UniProt P63208 2-163; Q8NEZ5 12-403) (complex)”, the IC50 (His10-TEV-BACH1^BTB) is reported as 495 nM and the stoichiometry N (equivalent SKP1-FBXO22) [6] is reported as 1.

B1: full-length BACH1 (residues 2-736), tag-free (natural protein)
chain: SLSENSVFAYESSVHSTNVLLSLNDQRKKDVLCDVTIFVEGQRFRAHRSVLAACSSYFHSRIVGQADGELNITLPEEVTVKGFEPLIQFAYTAKLILSKENVDEVCKCVEFLSVHNIEESCFQFLKFKFLDSTADQQECPRKKCFSSHCQKTDLKLSLLDQRDLETDEVEEFLENKNVQTPQCKLRRYQGNAKASPPLQDSASQTYESMCLEKDAALALPSLCPKYRKFQKAFGTDRVRTGESSVKDIHASVQPNERSENECLGGVPECRDLQVMLKCDESKLAMEPEETKKDPASQCPTEKSEVTPFPHNSSIDPHGLYSLSLLHTYDQYGDLNFAGMQNTTVLTEKPLSGTDVQEKTFGESQDLPLKSDLGTREDSSVASSDRSSVEREVAEHLAKGFWSDICSTDTPCQMQLSPAVAKDGSEQISQKRSECPWLGIRISESPEPGQRTFTTLSSVNCPFISTLSTEGCSSNLEIGNDDYVSEPQQEPCPYACVISLGDDSETDTEGDSESCSAREQECEVKLPFNAQRIISLSRNDFQSLLKMHKLTPEQLDCIHDIRRRSKNRIAAQRCRKRKLDCIQNLESEIEKLQSEKESLLKERDHILSTLGETKQNLTGLCQKVCKEAALSQEQIQILAKYSAADCPLSFLISEKDKSTPDGELALPSIFSLSDRPPAVLPPCARGNSEPGYARGQESQQMSTATSEQAGPAEQCRQSGGISDFCQQMTDKCTTDE
With B1 the Kd [1] was 44.3 nM and 28.6 nM, the koff [1] was 0.0021 s⁻¹ and the kon [1] was 470000 M⁻¹ s⁻¹. For the same molecule, the stoichiometry N (BACH1^FL per SKP1-FBXO22 heterodimer) [7] was 2 and the “stoichiometry N” value (mass photometry) was 2.

Reference: article doi:10.1101/2024.06.03.596960 (bioRxiv, 2024)
